Reference: paper PMC9789152
Where “and” joins values, the source holds several entries; their conditions need not be identical. Identical values can stand only once.

Legend:
[1] = target: S. mutans surface protein antigen I/II (Ag I/II), proline repeat working fragment (Streptococcus mutans UA159); assay: cryo-TEM of self-assembly; protein stock (10 mg/mL, pH 3.5) diluted 10 times with 4 mM PBS (pH 7.4 in the methods, pH 8.0 in the results); 10 min assembly reaction, plunge-frozen
[2] = target: recombinant human amelogenin (AmH) (human); assay: as above

Row | stoichiometry N [2] | Substance | stoichiometry N [1]
1 | – | S. mutans surface protein antigen I/II (Ag I/II), proline repeat working fragment (domain or fragment) | 6 monomers and 10 monomers
2 | 6 monomers and 8 monomers | recombinant human amelogenin (AmH) (natural protein) | –
